Results taken from publication PMC6063412, “Development of monoclonal anti-PDGF-CC antibodies as tools for investigating human tissue expression and for blocking PDGF-CC induced PDGFRα signalling in vivo” (PLoS ONE, 2018).

B1: monoclonal anti-PDGF-CC antibody 6B3 (antibody, V domains shown)
VH: QVQLQQSGVEVARPGASVKLSCKASGYTFRSYGITWVRQRTGQGLEWIGEIYPRSGKTYYNEKFKGKATLTADTSSSTVYMELRSLTSEDSAVYFCAREGYGYDGGYFDYWGQGTTLTVSS
VL: DIVMTQSPSSLAMSVGQKVTMSCKSSQSLLNSRNQKNYLAWYQQKPGQSPKLLVYFASTRESGVPDRFTGSGSGTDFTLTISSVQAEDLAVYYCQQHYSTPLTFGAGTKLELK
notes: VH CDR1 (Kabat combined with Chothia); VH CDR2; VH CDR3; VL CDR1 (Kabat combined with Chothia); VL CDR2; VL CDR3; Mouse IgG2a, kappa; Only the CDRs are printed; frameworks are not; also called mAb 6B3; clone 6B3; source: mouse hybridoma; culture supernatant, or IgG purified (HiTrap-Protein G)
B2: monoclonal anti-PDGF-CC antibody 11F5 (antibody, V domains shown)
VH: QVQLQQSGAELARPGASVKLSCKASGYIFISYGISWVKQRTGQGLEWIGEIYPRSGKTYYNEKFKDKAALTADKSSSIAYMELRSLTSEDSAVYFCAREGYGYDGGYFDYWGQGTILTVSS
VL: DIVMTQSPSSLAMSVGQKVAVSCKSSQSLLNSSNQKNYLAWYQQKPGQSPKLLVYFASTRDSGVPDRFTGSGSGTDFTLTISSVQAEDLAVYYCQQHYSTPLTFGAGTKLELK
notes: VH CDR1 (Kabat combined with Chothia); VH CDR2; VH CDR3; VL CDR1 (Kabat combined with Chothia); VL CDR2; VL CDR3; Mouse IgG2a, kappa; Only the CDRs are printed; frameworks are not; also called clone 11F5; source: mouse hybridoma; culture supernatant, or IgG purified (HiTrap-Protein G)
B3: monoclonal anti-PDGF-CC antibody 19C7 (antibody, V domains shown)
VH: QVQLQQSGVEVARPGASVKLSCKASGYTFRSYGITWVRQRTGQGLEWIGEIYPRSGKTYYNEKFKGKATLTADTSSSTVYMELRSLTSEDSAVYFCAREGYGYDGGYFDYWGQGTTLTVSS
VL: DIVMTQSPSSLAMSVGQKVTMSCKSSQSLLNSRNQKNYLAWYQQKPGQSPKLLVYFASTRESGVPDRFTGSGSGTDFTLTISSVQAEDLAVYYCQQHYSTPLTFGAGTKLELK
notes: VH CDR1 (Kabat combined with Chothia); VH CDR2; VH CDR3; VL CDR1 (Kabat combined with Chothia); VL CDR2; VL CDR3; Mouse IgG2a, kappa; CDRs identical to those of 6B3; also called clone 19C7; source: mouse hybridoma; culture supernatant, or IgG purified (HiTrap-Protein G)

Key:
[1] = target: T1, recombinant human PDGF-CC core domain protein (activated PDGF-CC, growth factor domain) (human, UniProt Q9NRA1); assay: immunoblot; recombinant PDGF proteins run reduced and non-reduced, blotted and probed with murine mAb IgG; conditions: both partners purified
T1 construct: platelet-derived growth factor C, human, core domain (growth factor domain, GFD) released from the N-terminal CUB domain; also called hPCc; active PDGF-CC
T1 sequence (Q9NRA1 230-345): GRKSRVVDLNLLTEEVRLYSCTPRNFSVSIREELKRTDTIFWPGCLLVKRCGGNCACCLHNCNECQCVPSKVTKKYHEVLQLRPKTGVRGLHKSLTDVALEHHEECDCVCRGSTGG

[2] = target: T2, human latent full-length PDGF-CC (Homo sapiens, UniProt Q9NRA1); assay: as above; conditions: both partners purified
T2 construct: platelet-derived growth factor C, human, latent full-length form with the CUB domain; also called hPCf; latent PDGF-CC
T2 sequence (Q9NRA1 23-345): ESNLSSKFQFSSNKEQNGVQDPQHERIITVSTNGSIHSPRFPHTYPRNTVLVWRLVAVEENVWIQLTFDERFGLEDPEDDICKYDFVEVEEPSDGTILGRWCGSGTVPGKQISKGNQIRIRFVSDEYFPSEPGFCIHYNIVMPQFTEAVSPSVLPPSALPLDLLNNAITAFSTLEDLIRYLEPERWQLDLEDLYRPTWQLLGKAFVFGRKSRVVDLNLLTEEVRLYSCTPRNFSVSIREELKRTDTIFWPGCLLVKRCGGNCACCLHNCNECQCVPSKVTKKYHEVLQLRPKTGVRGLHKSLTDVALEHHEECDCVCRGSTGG

human PDGF-DD [3] = target: T3, human PDGF-DD (Homo sapiens, UniProt Q9GZP0); assay: as above; conditions: both partners purified
PDGF-AA [4] = target: T4, PDGF-AA (UniProt P04085); assay: ELISA; 96-well plate coated with PDGF-AA, PDGF-BB, PDGF-CC or PDGF-DD; 6B3 applied (methods: hybridoma supernatant in dilution series), anti-mouse IgG-AP, absorbance at 405 nm; conditions: one partner purified
T4 construct: platelet-derived growth factor A chain homodimer

PDGF-BB [5] = target: T5, PDGF-BB (UniProt P01127); assay: as above; conditions: one partner purified
T5 construct: platelet-derived growth factor B chain homodimer
T5 sequence (P01127 82-190): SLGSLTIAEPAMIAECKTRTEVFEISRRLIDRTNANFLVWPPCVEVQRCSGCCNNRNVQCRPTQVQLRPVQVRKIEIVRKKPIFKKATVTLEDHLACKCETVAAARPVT

[6] = target: T6, endogenous human PDGF-CC in A549 cells and placental tissue (Homo sapiens (endogenous, A549 and …, UniProt Q9NRA1)); assay: immunostaining of cells or tissue; paraffin-embedded sections of A549 cells and human placenta, citric acid antigen retrieval, 6B3 at 1.5 μg/ml, anti-mouse-HRP and DAB; with or without 1 h pre-incubation of 6B3 with 6.7 X excess PDGF-CC His6 (10 μg/ml); conditions: one partner purified
T6 construct: platelet-derived growth factor C, endogenous; source: endogenous, paraffin-embedded sections of the A549 cell line and human placental tissue
T6 sequence (Q9NRA1 23-345): as the sequence (Q9NRA1 23-345) above

human PDGF-DD [7] = target: T3, human PDGF-DD; assay: ELISA; data not shown; as the 6B3 ELISA on coated PDGF-AA, PDGF-BB, PDGF-CC and PDGF-DD, with other clones; conditions: one partner purified
PDGF-AA [8] = target: T4, PDGF-AA; assay: as above; conditions: one partner purified
PDGF-BB [9] = target: T5, PDGF-BB; assay: as above; conditions: one partner purified

Binder	binding result [1]	binding result [2]	binding result (human PDGF-DD [3])	binding result (PDGF-AA [4])	binding result (PDGF-BB [5])	binding result [6]	binding result (human PDGF-DD [7])	binding result (PDGF-AA [8])	binding result (PDGF-BB [9])
B1	binds	binds	no binding	no binding	no binding	binds			
B2							no binding	no binding	no binding
B3							no binding	no binding	no binding
